pIC50: −log10 of the molar value.
What follows are sequences tested against HLA-A*02:01 (assay: IEDB peptide-MHC binding, cellular MHC/competitive/fluorescence; ≥ and ≤ were set here for values at or beyond the usual limits of such assays). Settings: source organism: Hepacivirus hominis.

Sequence	pIC50
LLGLLLLCV	5.13

Same assay, conditions: source organism: Influenza A virus

Sequence	pIC50
IAYERMCNIL	≤ 4.15
ILLRAFTEEGA	4.92
LLLVVQALR	4.99
NLPFDKTTIMA	4.60
NTTIEKEI	4.30
NVKDYSIV	≤ 4.15
NVRGSGMRILV	4.68
PACVYGLA	4.16
PACVYGPA	≤ 4.15
PAEMLANI	≤ 4.15
PAEMLASI	≤ 4.15
PAHKSQLV	≤ 4.15
PLIRHENRMVL	4.54

Same assay, conditions: source organism: Mammarenavirus brazilense

Sequence	pIC50
ICFWSTLFFT	4.93

Same assay, conditions: source organism: Mammarenavirus guanaritoense

Sequence	pIC50
KNAGYLVGR	4.64

Same assay, conditions: source organism: Vaccinia virus WR

Sequence	pIC50
GVEVRYIDI	4.78
HAKYMVTDKT	4.29
IAEYIAGLKI	5.11
IASAPQQLCT	4.44
IILFQNNDI	4.87
IIRVTTELNI	5.15
ITDQTVNICI	5.14
ITETIPIGM	≤ 4.15
ITGNKVKTEL	≤ 4.15
KAMHDKKIDI	4.30
KIQLFSDFTI	≤ 4.15
KLTKDRKML	4.25
KTEHCDDFMT	5.12
LAEYIRHRNT	≤ 4.15
LAIKNYYRKT	≤ 4.15
LAYYNSCML	4.34
LIISTDQDT	4.52
LIQYRQQLEL	≤ 4.15
LLTHGADPNA	4.95

Sequence	pIC50
LTDVEKRIL	4.57
LTGNNTITT	4.95
LTNKKYRCMA	≤ 4.15
LTPFEKEFT	4.35
LVSKHWELT	≤ 4.15
MQLKIDKLT	4.58
NILGGVLHT	4.38
NINFNNSSII	4.49
NLCKYLRGHT	4.42
NMDKVSAQNI	4.80
NVDVGCLLT	4.33
PAHLINKLL	4.95
PAMSTYSDI	4.79
PANINDKQIM	4.49
PLHIVCSKTV	4.67
PLIISTDQDT	4.28
PLKDVERLQM	4.34
PLPSLEYGA	4.83

Each sequence was assayed against HLA-A*02:02 in the same assay as above. Settings: source organism: Hepacivirus hominis.

Sequence	pIC50
LLGLLLLCV	5.01

Same assay, conditions: source organism: Influenza A virus

Sequence	pIC50
IAYERMCNIL	4.62
ILLRAFTEEGA	5.02
LLLVVQALR	4.97
NLPFDKTTIMA	5.11
NTTIEKEI	≤ 4.15
NVKDYSIV	≤ 4.15
NVRGSGMRILV	≤ 4.15
PACVYGLA	≤ 4.15
PACVYGPA	4.85
PAEMLANI	≤ 4.15
PAEMLASI	≤ 4.15
PAHKSQLV	≤ 4.15
PLIRHENRMVL	≤ 4.15

Same assay, conditions: source organism: Mammarenavirus brazilense

Sequence	pIC50
ICFWSTLFFT	4.48

Same assay, conditions: source organism: Mammarenavirus guanaritoense

Sequence	pIC50
KNAGYLVGR	4.34

Same assay, conditions: source organism: Vaccinia virus WR

Sequence	pIC50
GVEVRYIDI	4.92
HAKYMVTDKT	5.04
IAEYIAGLKI	4.54
IASAPQQLCT	4.27
IILFQNNDI	4.95
IIRVTTELNI	5.00
ITDQTVNICI	≤ 4.15
ITETIPIGM	4.91
ITGNKVKTEL	≤ 4.15
KAMHDKKIDI	≤ 4.15
KIQLFSDFTI	≤ 4.15
KLTKDRKML	4.61
KTEHCDDFMT	5.11
LAEYIRHRNT	4.44
LAIKNYYRKT	4.43
LAYYNSCML	4.89
LIISTDQDT	≤ 4.15
LIQYRQQLEL	4.48
LLTHGADPNA	5.02

Sequence	pIC50
LTDVEKRIL	4.56
LTGNNTITT	5.24
LTNKKYRCMA	4.46
LTPFEKEFT	4.77
LVSKHWELT	4.91
MQLKIDKLT	5.12
NILGGVLHT	≤ 4.15
NINFNNSSII	5.18
NLCKYLRGHT	4.40
NMDKVSAQNI	5.10
NVDVGCLLT	5.01
PAHLINKLL	5.17
PAMSTYSDI	4.74
PANINDKQIM	4.31
PLHIVCSKTV	4.46
PLIISTDQDT	4.35
PLKDVERLQM	5.21
PLPSLEYGA	4.94

These sequences were tested against HLA-A*02:03 in the same assay as above. Settings: source organism: Hepacivirus hominis.

Sequence	pIC50
LLGLLLLCV	5.17

Same assay, conditions: source organism: Influenza A virus

Sequence	pIC50
IAYERMCNIL	4.78
ILLRAFTEEGA	4.58
LLLVVQALR	4.46
NLPFDKTTIMA	5.07
NTTIEKEI	≤ 4.15
NVKDYSIV	5.19
NVRGSGMRILV	4.34
PACVYGLA	≤ 4.15
PACVYGPA	≤ 4.15
PAEMLANI	≤ 4.15
PAEMLASI	≤ 4.15
PAHKSQLV	≤ 4.15
PLIRHENRMVL	4.77

Same assay, conditions: source organism: Mammarenavirus brazilense

Sequence	pIC50
ICFWSTLFFT	4.45

Same assay, conditions: source organism: Mammarenavirus guanaritoense

Sequence	pIC50
KNAGYLVGR	≤ 4.15

Same assay, conditions: source organism: Vaccinia virus WR

Sequence	pIC50
GVEVRYIDI	4.34
HAKYMVTDKT	4.46
IAEYIAGLKI	4.64
IASAPQQLCT	≤ 4.15
IILFQNNDI	4.28
IIRVTTELNI	5.06
ITDQTVNICI	≤ 4.15
ITETIPIGM	4.37
ITGNKVKTEL	≤ 4.15
KAMHDKKIDI	4.34
